{
  "source": "patent US20140271457A1",
  "about": "(AbbVie / Abbott, published 2014)",
  "binders": {"B1": {"name": "DVD3119 (bispecific antibody, human IgG1, kappa)", "heavy": "not shown", "light": "DVVMTQSPLSLPVTLGQPASISCRSSQSLVHSHGNTYLHWYQQRPGQSPRLLIYTVSNRFSGVPDRFSGSGSGTDFTLKISRVEAEDVGVYYCSQSTHVPYTFGGGTKVEIKRTVAAPDIQMTQSPSSLSASVGDRVTITCRASQDIENYLNWYQQKPGKAPKLLIYYTSRLQSGVPSRFSGSGSGTDFTLTISSLQPEDFATYFCQQGNTQPPTFGQGTKLEIKRTVAAPSVFIFPPSDEQLKSGTASVVCLLNNFYPREAKVQWKVDNALQSGNSQESVTEQDSKDSTYSLSSTLTLSKADYEKHKVYACEVTHQGLSSPVTKSFNRGEC"}, "B2": {"name": "DVD3122 (bispecific antibody, human IgG1, kappa)", "heavy": "not shown", "light": "B1 light"}, "B3": {"name": "DVD2689 (bispecific antibody, human IgG1, kappa)", "heavy": "not shown", "light": "DIQMTQSPSSLSASVGDRVTISCRASQDIRNYLNWYQQKPGKAPKLLIFYTSKLHSGVPSRFSGSGSGTDYTLTISSLQPEDIATYYCQQGLTPPLTFGGGTKVEIKRTVAAPDIQMTQSPSSLSASVGDRVTITCRASQLVSSAVAWYQQKPGKAPKLLIYWASARHTGVPSRFSGSGSGTDFTLTISSLQPEDFATYYCQQHYKTPFTFGQGTKLEIKRTVAAPSVFIFPPSDEQLKSGTASVVCLLNNFYPREAKVQWKVDNALQSGNSQESVTEQDSKDSTYSLSSTLTLSKADYEKHKVYACEVTHQGLSSPVTKSFNRGEC"}, "B4": {"name": "DVD3121 (bispecific antibody, human IgG1, kappa)", "heavy": "not shown", "light": "DVVMTQSPLSLPVTLGQPASISCRSSQSLVHSHGNTYLHWYQQRPGQSPRLLIYTVSNRFSGVPDRFSGSGSGTDFTLKISRVEAEDVGVYYCSQSTHVPYTFGGGTKVEIKRTVAAPSVFIFPPDIQMTQSPSSLSASVGDRVTITCRASQDIENYLNWYQQKPGKAPKLLIYYTSRLQSGVPSRFSGSGSGTDFTLTISSLQPEDFATYFCQQGNTQPPTFGQGTKLEIKRTVAAPSVFIFPPSDEQLKSGTASVVCLLNNFYPREAKVQWKVDNALQSGNSQESVTEQDSKDSTYSLSSTLTLSKADYEKHKVYACEVTHQGLSSPVTKSFNRGEC"}, "B5": {"name": "DVD2688 (bispecific antibody, human IgG1, kappa)", "heavy": "not shown", "light": "DIQMTQSPSSLSASVGDRVTISCRASQDIRNYLNWYQQKPGKAPKLLIFYTSKLHSGVPSRFSGSGSGTDYTLTISSLQPEDIATYYCQQGLTPPLTFGGGTKVEIKRGGSGGGGSGDIQMTQSPSSLSASVGDRVTITCRASQLVSSAVAWYQQKPGKAPKLLIYWASARHTGVPSRFSGSGSGTDFTLTISSLQPEDFATYYCQQHYKTPFTFGQGTKLEIKRTVAAPSVFIFPPSDEQLKSGTASVVCLLNNFYPREAKVQWKVDNALQSGNSQESVTEQDSKDSTYSLSSTLTLSKADYEKHKVYACEVTHQGLSSPVTKSFNRGEC"}, "B6": {"name": "DVD3117 (bispecific antibody, human IgG1, kappa)", "heavy": "not shown", "light": "DIQMTQSPSSLSASVGDRVTITCRASQDIENYLNWYQQKPGKAPKLLIYYTSRLQSGVPSRFSGSGSGTDFTLTISSLQPEDFATYFCQQGNTQPPTFGQGTKLEIKRTVAAPDIQMTQSPSSLSASVGDRVTITCRASQLVSSAVAWYQQKPGKAPKLLIYWASARHTGVPSRFSGSGSGTDFTLTISSLQPEDFATYYCQQHYKTPFTFGQGTKLEIKRTVAAPSVFIFPPSDEQLKSGTASVVCLLNNFYPREAKVQWKVDNALQSGNSQESVTEQDSKDSTYSLSSTLTLSKADYEKHKVYACEVTHQGLSSPVTKSFNRGEC"}, "B7": {"name": "DVD3158 (bispecific antibody, human IgG1, kappa)", "heavy": "not shown", "light": "DIQMTQSPSSLSASVGDRVTITCRASQGIRNYLNWYQQKPGKAPKLLIYYASNLEVGVPSRFSGSGSGTDYTLTISSLQPEDFATYYCQQDNRFPYTFGGGTKVEIKRGGSGGGGSGDIQMTQSPSSLSASVGDRVTITCKASQLVSSAVAWYQQKPGKAPKLLIYWASTLHTGVPSRFSGSGSGTDFTLTISSLQPEDFATYYCQQHYRTPFTFGQGTKLEIKRTVAAPSVFIFPPSDEQLKSGTASVVCLLNNFYPREAKVQWKVDNALQSGNSQESVTEQDSKDSTYSLSSTLTLSKADYEKHKVYACEVTHQGLSSPVTKSFNRGEC"}, "B8": {"name": "DVD3114 (bispecific antibody)", "heavy": "not shown", "light": "DIQMTQSPSSLSASVGDRVTITCRASQDIENYLNWYQQKPGKAPKLLIYYTSRLQSGVPSRFSGSGSGTDFTLTISSLQPEDFATYFCQQGNTQPPTFGQGTKLEIKRTVAAPDVVMTQSPLSLPVTLGQPASISCRSSQSLVHSHGNTYLHWYQQRPGQSPRLLIYTVSNRFSGVPDRFSGSGSGTDFTLKISRVEAEDVGVYYCSQSTHVPYTFGGGTKVEIKRTVAAPSVFIFPPSDEQLKSGTASVVCLLNNFYPREAKVQWKVDNALQSGNSQESVTEQDSKDSTYSLSSTLTLSKADYEKHKVYACEVTHQGLSSPVTKSFNRGEC"}, "B9": {"name": "DVD3118 (bispecific antibody, human IgG1, kappa)", "heavy": "not shown", "light": "DVVMTQSPLSLPVTLGQPASISCRSSQSLVHSHGNTYLHWYQQRPGQSPRLLIYTVSNRFSGVPDRFSGSGSGTDFTLKISRVEAEDVGVYYCSQSTHVPYTFGGGTKVEIKRGGSGGGGSGDIQMTQSPSSLSASVGDRVTITCRASQDIENYLNWYQQKPGKAPKLLIYYTSRLQSGVPSRFSGSGSGTDFTLTISSLQPEDFATYFCQQGNTQPPTFGQGTKLEIKRTVAAPSVFIFPPSDEQLKSGTASVVCLLNNFYPREAKVQWKVDNALQSGNSQESVTEQDSKDSTYSLSSTLTLSKADYEKHKVYACEVTHQGLSSPVTKSFNRGEC"}, "B10": {"name": "DVD3113 (bispecific antibody)", "heavy": "not shown", "light": "DIQMTQSPSSLSASVGDRVTITCRASQDIENYLNWYQQKPGKAPKLLIYYTSRLQSGVPSRFSGSGSGTDFTLTISSLQPEDFATYFCQQGNTQPPTFGQGTKLEIKRGGSGGGGSGDVVMTQSPLSLPVTLGQPASISCRSSQSLVHSHGNTYLHWYQQRPGQSPRLLIYTVSNRFSGVPDRFSGSGSGTDFTLKISRVEAEDVGVYYCSQSTHVPYTFGGGTKVEIKRTVAAPSVFIFPPSDEQLKSGTASVVCLLNNFYPREAKVQWKVDNALQSGNSQESVTEQDSKDSTYSLSSTLTLSKADYEKHKVYACEVTHQGLSSPVTKSFNRGEC"}, "B11": {"name": "DVD3159 (bispecific antibody, human IgG1, kappa)", "heavy": "not shown", "light": "DIQMTQSPSSLSASVGDRVTITCRASQGIRNYLNWYQQKPGKAPKLLIYYASNLEVGVPSRFSGSGSGTDYTLTISSLQPEDFATYYCQQDNRFPYTFGGGTKVEIKRTVAAPDIQMTQSPSSLSASVGDRVTITCKASQLVSSAVAWYQQKPGKAPKLLIYWASTLHTGVPSRFSGSGSGTDFTLTISSLQPEDFATYYCQQHYRTPFTFGQGTKLEIKRTVAAPSVFIFPPSDEQLKSGTASVVCLLNNFYPREAKVQWKVDNALQSGNSQESVTEQDSKDSTYSLSSTLTLSKADYEKHKVYACEVTHQGLSSPVTKSFNRGEC"}, "B12": {"name": "DVD2714 (bispecific antibody, IgG1)", "VH": "EVQLVESGGGLVQPGGSLRLSCAASGFTFSNYGVTWVRQAPGKGLEWVSMIWADGSTHYASSVKGRFTISRDNSKNTLYLQMNSLRAEDTAVYYCAREWQHGPVAYWGQGTLVTVSSASTKGPEVQLVESGGGLVQPGGSLRLSCAASGFSLTNNNVNWVRQAPGKGLEWVGGVWAGGATDYNSALKSRFTISRDNSKNTAYLQMNSLRAEDTAVYYCARDGGYSSSTLYAMDAWGQGTLVTVSS", "VL": "DIQMTQSPSSLSASVGDRVTITCRASQLVSSAVAWYQQKPGKAPKLLIYWASARHTGVPSRFSGSGSGTDFTLTISSLQPEDFATYYCQQHYKTPFTFGQGTKLEIKRTVAAPDIQMTQSPSSLSASVGDRVTITCRASEDIYNALAWYQQKPGKAPKLLIYNTDTLHTGVPSRFSGSGSGTDYTLTISSLQPEDFATYFCQHYFHYPRTFGQGTKVEIKR"}, "B13": {"name": "AB267 (antibody, V domains shown)", "VH": "EVQLVESGGGLVQPGGSLRLSCAASGFSLTNNNVNWVRQAPGKGLEWVGGVWAGGATDYNSALKSRFTISRDNSKNTAYLQMNSLRAEDTAVYYCARDGGYSSSTLYAMDAWGQGTLVTVSS", "VL": "DIQMTQSPSSLSASVGDRVTITCRASEDIYNALAWYQQKPGKAPKLLIYNTDTLHTGVPSRFSGSGSGTDYTLTISSLQPEDFATYFCQHYFHYPRTFGQGTKVEIKR"}, "B14": {"name": "DVD3047 (bispecific antibody, IgG1)", "VH": "EVQLVESGGGLVQPGGSLRLSCAASGFSLTNNNVNWVRQAPGKGLEWVGGVWAGGATDYNSALKSRFTISRDNSKNTAYLQMNSLRAEDTAVYYCARDGGYSSSTLYAMDAWGQGTLVTVSSASTKGPSVFPLAPEVQLVQSGAEVKKPGASVKVSCKASGYTFNNYGIIWVRQAPGQGLEWMGWINTYTGKPTYAQKFQGRVTMTTDTSTSTAYMELSSLRSEDTAVYYCARKLFNTVAVTDNAMDYWGQGTTVTVSS", "VL": "DIQMTQSPSSLSASVGDRVTITCRASEDIYNALAWYQQKPGKAPKLLIYNTDTLHTGVPSRFSGSGSGTDYTLTISSLQPEDFATYFCQHYFHYPRTFGQGTKVEIKRTVAAPDIQMTQSPSSLSASVGDRVTITCRASQDIENYLNWYQQKPGKAPKLLIYYTSRLQSGVPSRFSGSGSGTDFTLTISSLQPEDFATYFCQQGNTQPPTFGQGTKLEIKR"}, "B15": {"name": "DVD2713 (bispecific antibody, IgG1)", "VH": "EVQLVESGGGLVQPGGSLRLSCAASGFTFSNYGVTWVRQAPGKGLEWVSMIWADGSTHYASSVKGRFTISRDNSKNTLYLQMNSLRAEDTAVYYCAREWQHGPVAYWGQGTLVTVSSGGGGSGGGGSEVQLVESGGGLVQPGGSLRLSCAASGFSLTNNNVNWVRQAPGKGLEWVGGVWAGGATDYNSALKSRFTISRDNSKNTAYLQMNSLRAEDTAVYYCARDGGYSSSTLYAMDAWGQGTLVTVSS", "VL": "DIQMTQSPSSLSASVGDRVTITCRASQLVSSAVAWYQQKPGKAPKLLIYWASARHTGVPSRFSGSGSGTDFTLTISSLQPEDFATYYCQQHYKTPFTFGQGTKLEIKRGGSGGGGSGDIQMTQSPSSLSASVGDRVTITCRASEDIYNALAWYQQKPGKAPKLLIYNTDTLHTGVPSRFSGSGSGTDYTLTISSLQPEDFATYFCQHYFHYPRTFGQGTKVEIKR"}},
  "data": [
    {"biological_target": "Recombinant Human IL-13 (human, UniProt P35225 35-146, limits assumed)", "sequence (P35225 35-146 limits assumed)": "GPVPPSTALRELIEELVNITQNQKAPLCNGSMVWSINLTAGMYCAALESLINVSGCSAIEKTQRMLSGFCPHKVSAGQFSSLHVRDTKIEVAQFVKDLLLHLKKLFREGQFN", "experiment": "cell-based or functional assay", "units": {"IL-13 Neutralization Assay IC50": "nM"}, "values": [
      {"binder": "B1", "IL-13 Neutralization Assay IC50": 0.051},
      {"binder": "B2", "IL-13 Neutralization Assay IC50": 0.011},
      {"binder": "B3", "IL-13 Neutralization Assay IC50": 0.147},
      {"binder": "B4", "IL-13 Neutralization Assay IC50": 0.013},
      {"binder": "B5", "IL-13 Neutralization Assay IC50": 0.094},
      {"binder": "B6", "IL-13 Neutralization Assay IC50": 0.015},
      {"binder": "B7", "IL-13 Neutralization Assay IC50": 0.137},
      {"binder": "B8", "IL-13 Neutralization Assay IC50": 0.781},
      {"binder": "B9", "IL-13 Neutralization Assay IC50": 0.013},
      {"binder": "B10", "IL-13 Neutralization Assay IC50": 0.065},
      {"binder": "B11", "IL-13 Neutralization Assay IC50": 0.087}
    ]},
    {"biological_target": "Recombinant Human β-NGF (human, UniProt P01138 122-241)", "sequence (P01138 122-241 limits assumed)": "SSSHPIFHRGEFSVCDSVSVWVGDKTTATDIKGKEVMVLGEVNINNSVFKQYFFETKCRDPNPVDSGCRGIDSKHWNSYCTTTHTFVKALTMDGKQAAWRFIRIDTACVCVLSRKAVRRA", "experiment": "cell-based or functional assay", "units": {"C-Terminal VD NGF Neutralization Assay IC50": "nM", "NGF Neutralization Assay IC50": "nM", "N-Terminal VD NGF Neutralization Assay IC50": "nM"}, "values": [
      {"binder": "B12", "C-Terminal VD NGF Neutralization Assay IC50": 6.85},
      {"binder": "B13", "NGF Neutralization Assay IC50": 0.007},
      {"binder": "B14", "N-Terminal VD NGF Neutralization Assay IC50": "> 10"},
      {"binder": "B15", "C-Terminal VD NGF Neutralization Assay IC50": 2.9}
    ]},
    {"biological_target": "Recombinant Human TNF-α/TNFSF1A (human, UniProt P01375 77-233)", "sequence (P01375 77-233 limits assumed)": "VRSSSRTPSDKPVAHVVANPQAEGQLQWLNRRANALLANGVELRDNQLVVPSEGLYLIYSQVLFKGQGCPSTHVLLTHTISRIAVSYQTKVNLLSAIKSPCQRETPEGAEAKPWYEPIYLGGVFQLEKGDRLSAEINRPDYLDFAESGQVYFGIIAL", "experiment": "cell-based or functional assay", "units": {"N-Terminal VD huTNFα Neutralization Assay IC50": "nM"}, "values": [
      {"binder": "B12", "N-Terminal VD huTNFα Neutralization Assay IC50": 0.008},
      {"binder": "B15", "N-Terminal VD huTNFα Neutralization Assay IC50": 0.006}
    ]}
  ]
}
